In patent US20130252282A1:

Tests used:
[1] = target: Dronpa145N (Pectimidae genus coral); assay: inferred from native PAGE of 100 µM protein after cyan (about 500 nm) illumination; self-association, off-photoswitched state
Cdc42 = Cdc42 (UniProt P60766); assay: cell-based or functional assay
UniProt P60766, sequence (P60766 1-188 limits assumed): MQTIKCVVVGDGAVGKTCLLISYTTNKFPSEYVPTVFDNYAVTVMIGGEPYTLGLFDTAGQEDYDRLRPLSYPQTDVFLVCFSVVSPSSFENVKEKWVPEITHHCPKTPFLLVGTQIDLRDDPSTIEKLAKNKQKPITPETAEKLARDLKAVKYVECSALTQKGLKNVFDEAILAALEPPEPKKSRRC

A Kd [1] of over 100 µM was found for Dronpa145N in this work.

A basal filopodia or lamellipodia in low expressers (Cdc42) of 8%, a cells forming abundant filopodia within 30 minutes after illumination (Cdc42) of 90% and a cells forming filopodia, not exposed to light (Cdc42) of 25% were found for “K-I-N-CAAX (Dronpa145K-intersectin DH domain-Dronpa145N-CAAX) (from UniProt Q15811 1234-1428) (enzyme)” in this work.

A basal filopodia or lamellipodia in low expressers (Cdc42) of 0% was found for “N-I-N-CAAX (Dronpa145N-intersectin DH domain-Dronpa145N-CAAX) (from UniProt Q15811 1234-1428)” in this work.

A cells forming abundant filopodia within 30 minutes after 490/20-nm light for 30 seconds (Cdc42) of 78% and a cells forming filopodia in the same time interval without illumination (Cdc42) of 10% were found for “N-I-N-CAAX (Dronpa145N-intersectin DH domain-Dronpa145N-CAAX) (from UniProt Q15811 1234-1428) (enzyme)” in this work.
